Test results as given in patent publication US20120128758A1.

Tests used:
[1] = target: TND-669S HIV-1 envelope (HIV-1); assay: cell-based or functional assay
[2] = target: TND-669L HIV-1 envelope (HIV-1); assay: cell-based or functional assay
[3] = target: SP62 (gp41 652-671)-GTH1 peptide anchored to liposomes; assay: SPR, peptide anchored to phospholipid liposomes
[4] = target: SP62-L669S (gp41 652-671)-GTH1 peptide anchored to liposomes; assay: SPR, peptide anchored to phospholipid liposomes
[5] = target: SP62 (gp41 652-671)-GTH1 peptide anchored to liposomes; assay: SPR on peptide-liposomes, encounter-docking (two-step) model, forward rate of the docking step; row '2F5 peptide liposome'
[6] = target: SP62 (gp41 652-671)-GTH1 peptide anchored to liposomes; assay: SPR on peptide-liposomes, encounter-docking (two-step) model, reverse rate of the docking step; row '2F5 peptide liposome'
[7] = target: SP62 (gp41 652-671)-GTH1 peptide anchored to liposomes; assay: SPR on peptide-liposomes, encounter-docking (two-step) model, association of the encounter step; row '2F5 peptide liposome'
[8] = target: SP62 (gp41 652-671)-GTH1 peptide anchored to liposomes; assay: SPR on peptide-liposomes, encounter-docking (two-step) model, dissociation of the encounter step; row '2F5 peptide liposome'
[9] = target: SP62-L669S (gp41 652-671)-GTH1 peptide anchored to liposomes; assay: SPR on peptide-liposomes, encounter-docking (two-step) model, forward rate of the docking step; row 'L669S 2F5 peptide liposome'
[10] = target: SP62-L669S (gp41 652-671)-GTH1 peptide anchored to liposomes; assay: SPR on peptide-liposomes, encounter-docking (two-step) model, reverse rate of the docking step; row 'L669S 2F5 peptide liposome'
[11] = target: SP62-L669S (gp41 652-671)-GTH1 peptide anchored to liposomes; assay: SPR on peptide-liposomes, encounter-docking (two-step) model, association of the encounter step; row 'L669S 2F5 peptide liposome'
[12] = target: SP62-L669S (gp41 652-671)-GTH1 peptide anchored to liposomes; assay: SPR on peptide-liposomes, encounter-docking (two-step) model, dissociation of the encounter step; row 'L669S 2F5 peptide liposome'

## mAb 17b (antibody)
[1]
  increase in neutralization sensitivity against TND-669L: 2 fold

## mAb 4E10 (antibody)
[2]
  mean IC50, neutralisation of Env-pseudovirus on JC53-BL cells: 8.49 µg/mL
[1]
  fold lower neutralisation IC50 against TND-669S than against TND-669L: 275 fold
  mean IC50, neutralisation of Env-pseudovirus on JC53-BL cells: 0.031 µg/mL

## mAb 2F5 (antibody)
[2]
  mean IC50, neutralisation of Env-pseudovirus on JC53-BL cells: 3.92 µg/mL
[1]
  mean IC50, neutralisation of Env-pseudovirus on JC53-BL cells: 0.014 µg/mL
[3]
  response unit at 10 seconds after the injection was stopped: 495 RU
[4]
  response unit (background subtracted) at 10 seconds after the injection was stopped: 617 RU
[5]
  ka2: 0.0181 s⁻¹
[6]
  kd2: 0.00037 s⁻¹
[7]
  ka1: 931000 M⁻¹ s⁻¹
[8]
  kd1: 0.00692 s⁻¹
[9]
  ka2: 0.0054 s⁻¹
[10]
  kd2: 2e-05 s⁻¹
[11]
  ka1: 498000 M⁻¹ s⁻¹
[12]
  kd1: 0.00119 s⁻¹

## mAb 447-52D (antibody)
[1]
  enhancement of neutralization sensitivity against TND-669L: > 161 fold
  neutralization of Env-pseudovirus, IC50: 0.31 µg/mL
